Test results from patent publication US5849890, “High affinity oligonucleotide ligands to chorionic gonadotropin hormone and related glycoprotein hormones” (NeXstar Pharmaceuticals, Inc.).

What was measured:
[1] = biological target: T1, human chorionic gonadotropin (hCG) heterodimer (Homo sapiens, UniProt P01215;P0DN86 P01215:25-116,P0DN86:21-165); test: filter; conserved region mutated; conditions: tags: Calbiochem or Vitro Diagnostics (14,000 IU/mg); chain copies: alpha/beta heterodimer (stated); label: 32P
Source text: (§1) PCR products generated from the RNA population isolated after six cycles of selection were cloned into pUC18 and 43 clones were sequenced (Table 13). As with the high affinity ligands selected in the first SELEX experiment in this example, 37 of the sequenced ligands are capable of assuming a stem-loop structure which places the conserved, unselected, 13-nt sequence in the "loop" structure.

[2] = biological target: T2, human follicle stimulating hormone (hFSH) (Homo sapiens, UniProt P01215;P01225 P01215:25-116,P01225:19-129); test: filter; Mg, pH 6.5; conditions: tags: Becton Dickinson; chain copies: alpha/beta heterodimer (inferred); label: 32P; G4 (RNase T1 protection in K+)
Protocol: (§2) Internally-labeled RNA transcripts were prepared by including [α-^32P]ATP in T7 RNA polymerase transcription reactions. Full-length transcripts were purified on 8% denaturing polyacrylamide gels to ensure size homogeneity. Gel-purified RNA was diluted to a concentration of ~5 nM in TEM buffer, heated to 80° C. then chilled on ice to facilitate secondary structure formation. RNA concentrations were kept lower than 100 pM in binding reactions. Briefly, equal amounts of RNA were incubated with varying amounts of hormone in 50 μL of TEM buffer for 10 minutes at 37° C. RNA-protein mixtures were passed through pre-wet nitrocellulose filters (0.2μ), and the filters were immediately washed with 5 mL of binding buffer. Radioactivity retained on filters was determined by liquid scintillation counting. The quantities of RNA bound to filters in the absence of protein was determined and used for background correction. The percentage of input RNA retained on each filter was plotted against the corresponding log protein concentration. The nonlinear least square method was used to obtain the dissociation constant (K_d) (Jellinek et al. (1993) Proc. Natl. Acad. Sci. U.S.A. 90:11227–11231; Irvine et al. (1991) J. Mol. Biol. 222:739–761).
(§3) By incorporating a counterselection step, SELEX allowed the isolation of hCG-specific RNA ligands (Example 5, infra).

[3] = biological target: T3, human luteinizing hormone (hLH) (Homo sapiens, UniProt P01215;P01229 P01215:25-116,P01229:21-141); test: filter; Mg, pH 6.5; conditions: tags: Becton Dickinson (2'-NH2 work); Scripps/Vitro Diagnostics (2'-F work); chain copies: alpha/beta heterodimer (inferred); label: 32P; G4 (RNase T1 protection in K+)
Protocol: as §2, §3

[4] = biological target: T4, human thyroid stimulating hormone (hTSH) (Homo sapiens, UniProt P01215;P01222 P01215:25-116,P01222:21-132); test: filter; Mg, pH 6.5; conditions: tags: Becton Dickinson; chain copies: alpha/beta heterodimer (inferred); label: 32P; G4 (RNase T1 protection in K+)
Protocol: as §2, §3

[5] = biological target: T1, human chorionic gonadotropin (hCG) …; test: filter; TEM or TESM, 2.1 mM Mg, pH 6.5, 37 C; conditions: tags: Calbiochem or Vitro Diagnostics (14,000 IU/mg); chain copies: alpha/beta heterodimer (stated); label: 32P; G4 (RNase T1 protection in K+)
Protocol: as §2, §3

[6] = biological target: T1, human chorionic gonadotropin (hCG) …; test: filter; +/- 3 nM (Table 5); conditions: tags: Calbiochem or Vitro Diagnostics (14,000 IU/mg); chain copies: alpha/beta heterodimer (stated); label: 32P; G4 (RNase T1 protection in K+)
[7] = biological target: T4, human thyroid stimulating hormone (hTSH); test: filter; not pH sensitive, pH 5.8-7.2; conditions: tags: Becton Dickinson; chain copies: alpha/beta heterodimer (inferred); label: 32P; possible hairpin; no G4 by RNase T1
[8] = biological target: T2, human follicle stimulating hormone …; test: filter; conditions: tags: Becton Dickinson; chain copies: alpha/beta heterodimer (inferred); label: 32P; possible hairpin; no G4 by RNase T1
[9] = biological target: T1, human chorionic gonadotropin (hCG) …; test: filter; +/- 13 nM; conditions: tags: Calbiochem or Vitro Diagnostics (14,000 IU/mg); chain copies: alpha/beta heterodimer (stated); label: 32P; intramolecular G4
Protocol: as §2

[10] = biological target: T1, human chorionic gonadotropin (hCG) …; test: filter; no significant stem; conditions: tags: Calbiochem or Vitro Diagnostics (14,000 IU/mg); chain copies: alpha/beta heterodimer (stated); label: 32P
Source text: as §1

[11] = biological target: T1, human chorionic gonadotropin (hCG) …; test: filter; 5.8 +/- 2.8 nM in Table 5; conditions: tags: Calbiochem or Vitro Diagnostics (14,000 IU/mg); chain copies: alpha/beta heterodimer (stated); label: 32P; G4 (RNase T1 protection in K+)
[12] = biological target: T3, human luteinizing hormone (hLH); test: filter; conditions: tags: Becton Dickinson (2'-NH2 work); Scripps/Vitro Diagnostics (2'-F work); chain copies: alpha/beta heterodimer (inferred); label: 32P; G4 (RNase T1 protection in K+)
Protocol: as §2, §3

[13] = biological target: T1, human chorionic gonadotropin (hCG) …; test: filter; +/- 9 nM; conditions: tags: Calbiochem or Vitro Diagnostics (14,000 IU/mg); chain copies: alpha/beta heterodimer (stated); label: 32P; intramolecular G4
Protocol: as §2

[14] = biological target: T1, human chorionic gonadotropin (hCG) …; test: filter; conditions: tags: Calbiochem or Vitro Diagnostics (14,000 IU/mg); chain copies: alpha/beta heterodimer (stated); label: 32P; two hairpins
[15] = biological target: T1, human chorionic gonadotropin (hCG) …; test: filter; Mg, pH 6.5; Kd rises >25-fold at pH 7.0; conditions: tags: Calbiochem or Vitro Diagnostics (14,000 IU/mg); chain copies: alpha/beta heterodimer (stated); label: 32P
[16] = biological target: T3, human luteinizing hormone (hLH); test: filter; Mg, pH 6.5; <2-fold change at pH 7.0; conditions: tags: Becton Dickinson (2'-NH2 work); Scripps/Vitro Diagnostics (2'-F work); chain copies: alpha/beta heterodimer (inferred); label: 32P
[17] = biological target: hCG beta-subunit (Homo sapiens, UniProt P0DN86 P0DN86:21-165); test: filter; conditions: tags: Calbiochem or Vitro Diagnostics; label: 32P
Protocol: as §2, §3

[18] = biological target: glycoprotein hormone common alpha-subunit (UniProt P01215 P01215:25-116); test: filter; conditions: tags: UCB-bioproducts; label: 32P
Protocol: as §2, §3

[19] = biological target: T1, human chorionic gonadotropin (hCG) …; test: filter; SBB buffer; conditions: tags: Calbiochem or Vitro Diagnostics (14,000 IU/mg); chain copies: alpha/beta heterodimer (stated); label: 32P; hairpin
[20] = biological target: T1, human chorionic gonadotropin (hCG) …; test: filter; in urine; conditions: tags: Calbiochem or Vitro Diagnostics (14,000 IU/mg); chain copies: alpha/beta heterodimer (stated); label: 32P; hairpin
[21] = biological target: T1, human chorionic gonadotropin (hCG) …; test: filter; 17.2% bound at 100 nM; conditions: tags: Calbiochem or Vitro Diagnostics (14,000 IU/mg); chain copies: alpha/beta heterodimer (stated); label: 32P; hairpin

T3 sequence (P01215 25-116, chain 1 of 2): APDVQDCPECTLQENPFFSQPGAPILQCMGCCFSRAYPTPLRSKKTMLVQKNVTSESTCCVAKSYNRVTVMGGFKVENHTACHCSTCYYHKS
T3 sequence (P01229 21-141, chain 2 of 2): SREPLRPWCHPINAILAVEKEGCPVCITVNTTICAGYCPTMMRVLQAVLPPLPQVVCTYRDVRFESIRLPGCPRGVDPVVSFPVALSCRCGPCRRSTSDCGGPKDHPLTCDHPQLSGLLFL
T1 sequence (P01215 25-116, chain 1 of 2, other chains not shown): as the sequence (P01215 25-116, chain 1 of 2) above
T2 sequence (P01215 25-116, chain 1 of 2): as above
T2 sequence (P01225 19-129, chain 2 of 2): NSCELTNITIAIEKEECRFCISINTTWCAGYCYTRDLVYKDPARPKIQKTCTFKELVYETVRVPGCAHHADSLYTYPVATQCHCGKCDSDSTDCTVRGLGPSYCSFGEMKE
T4 sequence (P01215 25-116, chain 1 of 2): as the sequence (P01215 25-116, chain 1 of 2) above
T4 sequence (P01222 21-132, chain 2 of 2): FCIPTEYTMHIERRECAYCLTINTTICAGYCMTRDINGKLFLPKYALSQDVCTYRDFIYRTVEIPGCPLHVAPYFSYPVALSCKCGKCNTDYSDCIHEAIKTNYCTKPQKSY
glycoprotein hormone common alpha-subunit, sequence (P01215 25-116, one chain of several): as the sequence (P01215 25-116, chain 1 of 2) above

B1: 2nd generation ligand 8 (ssRNA)
RNA: GGGAGGACGAUGCGGUUCGAUUCCAAGUUGAACGAUCCUCCUUUUGAUUAGACCAGACGACUCGCCCGA
modifications: 2'-F all pyrimidines
[1]
  binding signal: 0.73 % bound at 100 nM

B2: H-30 (ssRNA)
RNA: GGGAGGACGAUGCGGUACUGUAAAACAAUCUGGAGGAGGGUCUAGGGGAUGGUGGCAGACGACUCGCCCGA
modifications: 2'-NH2 all pyrimidines
[2]
  Kd: ~1700 nM
[3]
  Kd: 51 nM
[4]
  Kd: ~1600 nM
[5]
  Kd: 20 nM

B3: H-17 (ssRNA)
RNA: GGGAGGACGAUGCGGAGGGAACGCGGAGGGGUGUGUCCCCCAGACUACAAGGCGGCAGACGACUCGCCCGA
modifications: 2'-NH2 all pyrimidines
[6]
  Kd: 7.5 nM

B4: 2nd generation ligand 37 (ssRNA)
RNA: GGGAGGACGAUGCGGAAUUCCCCCAAGAUUGAACGGUCCUUUCUCGCAGAUGUUCAGACGACUCGCCCGA
modifications: 2'-F all pyrimidines
[1]
  binding signal: 0 % bound at 100 nM

B5: T-15 (ssRNA)
RNA: GGGAGGACGAUGCGGAUGUUGGCAGCAGGGUCCGACGGCGUAACCUUGCCAGCUGCAGACGACUCGCCCGA
modifications: 2'-NH2 all pyrimidines
[7]
  Kd: 14 nM
[8]
  Kd: ~200 nM

B6: 2nd generation ligand 95 (ssRNA)
RNA: GGGAGGACGAUGCGGGUUUUCCUACUAGUUGAAUGAUCCUUCUAGUUAGAUGCCAGACGACUCGCCCGA
modifications: 2'-F all pyrimidines
[1]
  binding signal: 1.57 % bound at 100 nM

B7: delta17 (ssRNA)
RNA: GGAGGACGAUGCGGAGGGAACGCGGAGGGGUG
modifications: 2'-NH2 all pyrimidines
[9]
  Kd: 25 nM

B8: 2nd generation ligand 77 (ssRNA)
RNA: GGGAGGACGAUGCGGCAGUGUCAACAUCUUGAACGAUCCUUUUUUUCAGCGCGUCAGACGACUCGCCCGA
modifications: 2'-F all pyrimidines
[10]
  binding signal: 0.42 % bound at 100 nM

B9: 2nd generation ligand 84 (ssRNA)
RNA: GGGAGGACGAUGCGGUUGGUUAUCCAUGUUGAACGUUCCUUCAUGUCGAAUAUGCAGACGACUCGCCCGA
modifications: 2'-F all pyrimidines
[1]
  binding signal: 0.24 % bound at 100 nM

B10: H-25 (ssRNA)
RNA: GGGAGGACGAUGCGGAAAGGAGGAGGCUGGGUGCGUCAAGAGUUCUCCCGAGCGCCAGACGACUCGCCCGA
modifications: 2'-NH2 all pyrimidines
[11]
  Kd: 6 nM
[12]
  Kd: 17.5 nM

B11: delta25 (ssRNA)
RNA: GGAGGACGAUGCGGAAAGGAGGAGGCUGGGUGCGUC
modifications: 2'-NH2 all pyrimidines
[13]
  Kd: 24 nM

B12: ligand 25/9 dimer (ssRNA)
RNA: GGGAGACAAGAAUAAACGCUCAACAGUGAUUGAACGAUCCUUUCAGCUGGUGGGUAUGGUCCCGGAGUCUCGUUGGUCGUUGAACGAUCCUUCGACAGGAGGCUCA
modifications: 2'-F all pyrimidines
[14]
  Kd: ~200 nM

B13: 2nd generation ligand 76 (ssRNA)
RNA: GGGAGGACGAUGCGGACCGACUAAAUGAUUGAACGAUCCUUAUUGUCUCUAUCACAGACGACUCGCCCGA
modifications: 2'-F all pyrimidines
[10]
  binding signal: 0.2 % bound at 100 nM

B14: 2nd generation ligand 82 (ssRNA)
RNA: GGGAGGACGAUGCGGUAACAGUCGAUUCUUGAACGAUCCUUUCCACUUCAACCGCAGACGACUCGCCCGA
modifications: 2'-F all pyrimidines
[10]
  binding signal: 0 % bound at 100 nM

B15: H-42 (ssRNA)
RNA: GGGAGGACGAUGCGGACAAGGGCCUGAGUGUGGAGGGCACGUGGAGGGGACUGGCCAGACGACUCGCCCGA
modifications: 2'-NH2 all pyrimidines
[15]
  Kd: 6.2 nM
[16]
  Kd: 15 nM
[17]
  Kd: ~200 nM
[18]
  Kd: ~1400 nM

B16: 2nd generation ligand 59 (ssRNA)
RNA: GGGAGGACGAUGCGGUAACUCUUAAUUCUUGAACAAUCCUUGAAUUUAGCGGACCAGACGACUCGCCCGA
modifications: 2'-F all pyrimidines
[1]
  binding signal: 1.88 % bound at 100 nM

B17: 2nd generation ligand 7 (ssRNA)
RNA: GGGAGGACGAUGCGGAUGAGCUUGAUAAUGGAACGAUCCUUUUAACGGUUCUUCCAGACGACUCGCCCGA
modifications: 2'-F all pyrimidines
[1]
  binding signal: 0 % bound at 100 nM

B18: hCG ligand 9TR1 (ssRNA)
RNA: GGGAGUCUCGUUGGUCGUUGAACGAUCCUUCGACAGGAGGCUCA
modifications: 2'-F all pyrimidines
[19]
  Kd: 200 nM
[20]
  Kd: 100 nM

B19: 2nd generation ligand 18 (ssRNA)
RNA: GGGAGGACGAUGCGGCAUUCGCUGAUUCUUGAACGAUCCUUGAUGAUGUGGAUGCAGACGACUCGCCCGA
modifications: 2'-F all pyrimidines
[21]
  Kd: 150 nM
